Results published in patent US20230357348A1 (AstraZeneca / MedImmune, published 2023).
Starred links: 1 amine or outer side, 2 acyl side, 3 side chain; linkers in the order of their positions; H or OH if unused. Non-standard residues stand in square brackets, D forms with d. Groups on a side chain read outwards from the residue. No end group written: not given here. *: point of attachment. C20 diacid = O=C(O)CCCCCCCCCCCCCCCCCCC(=O)*; C18 diacid = O=C(O)CCCCCCCCCCCCCCCCC(=O)*; γGlu = O=C(O)[C@H](CCC(=O)[*:2])N[*:1]; αMeF = C[C@](N)(Cc1ccccc1)C(=O)O; AEEA = NCCOCCOCC(=O)O; Aib = CC(C)(N)C(=O)O

Tests used:
[1] = molecular target: human GLP-1 receptor (hGLP-1R) (human, UniProt P43220 24-463); experiment: cell-based or functional assay
[2] = molecular target: human glucagon receptor (hGCGR) (human, UniProt P47871 26-477); experiment: cell-based or functional assay
Sequence of human glucagon receptor (hGCGR) (P47871 26-477): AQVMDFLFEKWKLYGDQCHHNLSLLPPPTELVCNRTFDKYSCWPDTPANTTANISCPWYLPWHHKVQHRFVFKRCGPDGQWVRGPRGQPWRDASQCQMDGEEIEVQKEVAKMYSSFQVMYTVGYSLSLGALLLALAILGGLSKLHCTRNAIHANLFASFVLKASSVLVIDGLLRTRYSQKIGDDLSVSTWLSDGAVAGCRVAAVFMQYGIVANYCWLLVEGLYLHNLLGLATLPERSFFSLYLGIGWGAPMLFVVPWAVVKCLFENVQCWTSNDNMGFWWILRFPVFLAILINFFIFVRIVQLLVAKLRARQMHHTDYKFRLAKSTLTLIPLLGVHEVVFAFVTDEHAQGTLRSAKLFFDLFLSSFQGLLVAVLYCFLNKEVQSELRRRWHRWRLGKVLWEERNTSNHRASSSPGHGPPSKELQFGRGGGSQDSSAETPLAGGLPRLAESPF

| Binder | hGLP-1R EC50 (pM) [1] [pM] | hGluc-R EC50 (pM) [2] [pM] |
| --- | --- | --- |
| H[Aib]QGTFTSDVSK[αMeF]LDRK([AEEA-AEEA-γGlu-C18 diacid])RAQDFVRWLL[Aib]E-NH2 (N-terminus assumed; SMILES CC(C)C[C@H](NC(=O)[C@H](Cc1c[nH]c2ccccc12)NC(=O)[C@H](CCCNC(=N)N)NC(=O)[C@@H](NC(=O)[C@H](Cc1ccccc1)NC(=O)[C@H](CC(=O)O)NC(=O)[C@H](CCC(N)=O)NC(=O)[C@H](C)NC(=O)[C@H](CCCNC(=N)N)NC(=O)[C@H](CCCCNC(=O)COCCOCCNC(=O)COCCOCCNC(=O)CC[C@H](NC(=O)CCCCCCCCCCCCCCCCC(=O)O)C(=O)O)NC(=O)[C@H](CCCNC(=N)N)NC(=O)[C@H](CC(=O)O)NC(=O)[C@H](CC(C)C)NC(=O)[C@](C)(Cc1ccccc1)NC(=O)[C@H](CCCCN)NC(=O)[C@H](CO)NC(=O)[C@@H](NC(=O)[C@H](CC(=O)O)NC(=O)[C@H](CO)NC(=O)[C@@H](NC(=O)[C@H](Cc1ccccc1)NC(=O)[C@@H](NC(=O)CNC(=O)[C@H](CCC(N)=O)NC(=O)C(C)(C)NC(=O)[C@@H](N)Cc1c[nH]cn1)[C@@H](C)O)[C@@H](C)O)C(C)C)C(C)C)C(=O)N[C@@H](CC(C)C)C(=O)NC(C)(C)C(=O)N[C@@H](CCC(=O)O)C(N)=O) [Peptide 439] | 30.6 | 57.7 |
| H[Aib]QGTFTSDVSK[αMeF]LDKK([AEEA-AEEA-γGlu-C18 diacid])RAQDFVRWLEA[Aib]G-NH2 (N-terminus assumed; SMILES CC(C)C[C@H](NC(=O)[C@H](Cc1c[nH]c2ccccc12)NC(=O)[C@H](CCCNC(=N)N)NC(=O)[C@@H](NC(=O)[C@H](Cc1ccccc1)NC(=O)[C@H](CC(=O)O)NC(=O)[C@H](CCC(N)=O)NC(=O)[C@H](C)NC(=O)[C@H](CCCNC(=N)N)NC(=O)[C@H](CCCCNC(=O)COCCOCCNC(=O)COCCOCCNC(=O)CC[C@H](NC(=O)CCCCCCCCCCCCCCCCC(=O)O)C(=O)O)NC(=O)[C@H](CCCCN)NC(=O)[C@H](CC(=O)O)NC(=O)[C@H](CC(C)C)NC(=O)[C@](C)(Cc1ccccc1)NC(=O)[C@H](CCCCN)NC(=O)[C@H](CO)NC(=O)[C@@H](NC(=O)[C@H](CC(=O)O)NC(=O)[C@H](CO)NC(=O)[C@@H](NC(=O)[C@H](Cc1ccccc1)NC(=O)[C@@H](NC(=O)CNC(=O)[C@H](CCC(N)=O)NC(=O)C(C)(C)NC(=O)[C@@H](N)Cc1c[nH]cn1)[C@@H](C)O)[C@@H](C)O)C(C)C)C(C)C)C(=O)N[C@@H](CCC(=O)O)C(=O)N[C@@H](C)C(=O)NC(C)(C)C(=O)NCC(N)=O) [Peptide 438] | 17.9 | 68.9 |
| H[Aib]QGTFTSDVSK[αMeF]LDRK([AEEA-AEEA-γGlu-C20 diacid])RAQDFVRWLV[Aib]E-NH2 (N-terminus assumed; SMILES CC(C)C[C@H](NC(=O)[C@H](Cc1c[nH]c2ccccc12)NC(=O)[C@H](CCCNC(=N)N)NC(=O)[C@@H](NC(=O)[C@H](Cc1ccccc1)NC(=O)[C@H](CC(=O)O)NC(=O)[C@H](CCC(N)=O)NC(=O)[C@H](C)NC(=O)[C@H](CCCNC(=N)N)NC(=O)[C@H](CCCCNC(=O)COCCOCCNC(=O)COCCOCCNC(=O)CC[C@H](NC(=O)CCCCCCCCCCCCCCCCCCC(=O)O)C(=O)O)NC(=O)[C@H](CCCNC(=N)N)NC(=O)[C@H](CC(=O)O)NC(=O)[C@H](CC(C)C)NC(=O)[C@](C)(Cc1ccccc1)NC(=O)[C@H](CCCCN)NC(=O)[C@H](CO)NC(=O)[C@@H](NC(=O)[C@H](CC(=O)O)NC(=O)[C@H](CO)NC(=O)[C@@H](NC(=O)[C@H](Cc1ccccc1)NC(=O)[C@@H](NC(=O)CNC(=O)[C@H](CCC(N)=O)NC(=O)C(C)(C)NC(=O)[C@@H](N)Cc1c[nH]cn1)[C@@H](C)O)[C@@H](C)O)C(C)C)C(C)C)C(=O)N[C@H](C(=O)NC(C)(C)C(=O)N[C@@H](CCC(=O)O)C(N)=O)C(C)C) [Peptide 437] | 26.9 | 96.9 |

Now from value to binder:

| hGLP-1R EC50 (pM) [1] [pM] | hGluc-R EC50 (pM) [2] [pM] | Binder |
| --- | --- | --- |
| 62.7 | 72.8 | H[Aib]QGTFTSDVSK[αMeF]LDKK([AEEA-AEEA-γGlu-C20 diacid])RAQDFVRWLL[Aib]E-NH2 (N-terminus assumed; SMILES CC(C)C[C@H](NC(=O)[C@H](Cc1c[nH]c2ccccc12)NC(=O)[C@H](CCCNC(=N)N)NC(=O)[C@@H](NC(=O)[C@H](Cc1ccccc1)NC(=O)[C@H](CC(=O)O)NC(=O)[C@H](CCC(N)=O)NC(=O)[C@H](C)NC(=O)[C@H](CCCNC(=N)N)NC(=O)[C@H](CCCCNC(=O)COCCOCCNC(=O)COCCOCCNC(=O)CC[C@H](NC(=O)CCCCCCCCCCCCCCCCCCC(=O)O)C(=O)O)NC(=O)[C@H](CCCCN)NC(=O)[C@H](CC(=O)O)NC(=O)[C@H](CC(C)C)NC(=O)[C@](C)(Cc1ccccc1)NC(=O)[C@H](CCCCN)NC(=O)[C@H](CO)NC(=O)[C@@H](NC(=O)[C@H](CC(=O)O)NC(=O)[C@H](CO)NC(=O)[C@@H](NC(=O)[C@H](Cc1ccccc1)NC(=O)[C@@H](NC(=O)CNC(=O)[C@H](CCC(N)=O)NC(=O)C(C)(C)NC(=O)[C@@H](N)Cc1c[nH]cn1)[C@@H](C)O)[C@@H](C)O)C(C)C)C(C)C)C(=O)N[C@@H](CC(C)C)C(=O)NC(C)(C)C(=O)N[C@@H](CCC(=O)O)C(N)=O) [Peptide 441] |
| 154 | 81 | H[Aib]QGTFTSDVSK[αMeF]LDKK([AEEA-AEEA-γGlu-C20 diacid])RARDFVRWLL[Aib]E-OH (N-terminus assumed; SMILES CC(C)C[C@H](NC(=O)[C@H](Cc1c[nH]c2ccccc12)NC(=O)[C@H](CCCNC(=N)N)NC(=O)[C@@H](NC(=O)[C@H](Cc1ccccc1)NC(=O)[C@H](CC(=O)O)NC(=O)[C@H](CCCNC(=N)N)NC(=O)[C@H](C)NC(=O)[C@H](CCCNC(=N)N)NC(=O)[C@H](CCCCNC(=O)COCCOCCNC(=O)COCCOCCNC(=O)CC[C@H](NC(=O)CCCCCCCCCCCCCCCCCCC(=O)O)C(=O)O)NC(=O)[C@H](CCCCN)NC(=O)[C@H](CC(=O)O)NC(=O)[C@H](CC(C)C)NC(=O)[C@](C)(Cc1ccccc1)NC(=O)[C@H](CCCCN)NC(=O)[C@H](CO)NC(=O)[C@@H](NC(=O)[C@H](CC(=O)O)NC(=O)[C@H](CO)NC(=O)[C@@H](NC(=O)[C@H](Cc1ccccc1)NC(=O)[C@@H](NC(=O)CNC(=O)[C@H](CCC(N)=O)NC(=O)C(C)(C)NC(=O)[C@@H](N)Cc1c[nH]cn1)[C@@H](C)O)[C@@H](C)O)C(C)C)C(C)C)C(=O)N[C@@H](CC(C)C)C(=O)NC(C)(C)C(=O)N[C@@H](CCC(=O)O)C(=O)O) [Peptide 440] |
